The values that follow come from the supplement of paper PMC9112550, “Optimization of the antimicrobial peptide Bac7 by deep mutational scanning” (BMC Biology, 2022).
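Note: peptides expressed intracellularly from a pBAD plasmid library in pooled LB shake-flask culture, induced with 0.3% L-arabinose, DNA abundance read by NGS, three biological replicates, DESeq2 with apeglm shrinkage.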

For the data set, the system named is Escherichia coli TOP10. Kind of data set: shrunken log2 fold change of peptide-encoding DNA abundance (4.5 h post-induction vs induction); higher = less antimicrobial activity (less host growth inhibition). Particulars: time post-induction: 4.5 h; library: site-saturation at positions 5, 18, 19, 20.
On to RRIRNRPPRLPRPRPRPHDFPRP, for which the “shrunken log2 fold change” value was determined as 0.137.

On to RRIRQRPPRLPRPRPRPFAHPRP, for which the “shrunken log2 fold change” value is -0.0959.

With RRIRARPPRLPRPRPRPYWVPRP, the “shrunken log2 fold change” value was -0.57.

Take RRIRQRPPRLPRPRPRPEDAPRP: the “shrunken log2 fold change” value is -0.132.

Consider RRIRMRPPRLPRPRPRPGLMPRP, for which the “shrunken log2 fold change” value is 0.518.

Regarding RRIRSRPPRLPRPRPRPHPRPRP, the “shrunken log2 fold change” value worked out at 0.375.

For RRIRQRPPRLPRPRPRPIYEPRP, the “shrunken log2 fold change” value is -0.0255.

On to RRIRLRPPRLPRPRPRPQYQPRP, for which the “shrunken log2 fold change” value was -0.801.

For the sequence RRIRCRPPRLPRPRPRPLRPPRP, the “shrunken log2 fold change” value amounted to 0.815.

As to RRIRSRPPRLPRPRPRPFDAPRP, the “shrunken log2 fold change” value was -0.279.

For RRIRLRPPRLPRPRPRPIRHPRP, the “shrunken log2 fold change” value is -0.144.

On to RRIRCRPPRLPRPRPRPAPKPRP, for which the “shrunken log2 fold change” value is 1.02.

Take RRIRMRPPRLPRPRPRPWDTPRP: the “shrunken log2 fold change” value is -0.0606.

Take RRIRMRPPRLPRPRPRPAILPRP: the “shrunken log2 fold change” value stood at 0.467.

RRIRWRPPRLPRPRPRPPMTPRP: the “shrunken log2 fold change” value was 0.257.

In the case of RRIRKRPPRLPRPRPRPTHCPRP, the “shrunken log2 fold change” value worked out at 0.251.

As to RRIRLRPPRLPRPRPRPLQHPRP, the “shrunken log2 fold change” value turned out to be 0.212.

Regarding RRIRDRPPRLPRPRPRPQGCPRP, the “shrunken log2 fold change” value was 0.0122.

In the case of RRIRFRPPRLPRPRPRPFRNPRP, the “shrunken log2 fold change” value was determined as 0.0579.

As for RRIRPRPPRLPRPRPRPNIRPRP, the “shrunken log2 fold change” value is -0.743.

In the case of RRIRPRPPRLPRPRPRPKGTPRP, the “shrunken log2 fold change” value came to 0.0309.

RRIRIRPPRLPRPRPRPNANPRP: the “shrunken log2 fold change” value was -0.252.

With RRIRLRPPRLPRPRPRPLSLPRP, the “shrunken log2 fold change” value was -0.145.

Consider RRIRDRPPRLPRPRPRPQQMPRP, for which the “shrunken log2 fold change” value was -0.0585.

RRIRYRPPRLPRPRPRPIILPRP: the “shrunken log2 fold change” value is -0.605.

On to RRIRMRPPRLPRPRPRPWWPPRP, for which the “shrunken log2 fold change” value turned out to be 0.445.

For RRIRGRPPRLPRPRPRPDIGPRP, the “shrunken log2 fold change” value came out at 0.663.

Regarding RRIRIRPPRLPRPRPRPFHLPRP, the “shrunken log2 fold change” value is -0.0356.

Take RRIRDRPPRLPRPRPRPRARPRP: the “shrunken log2 fold change” value was 0.601.

In the case of RRIRLRPPRLPRPRPRPWCIPRP, the “shrunken log2 fold change” value is 0.0272.

As for RRIRQRPPRLPRPRPRPLSPPRP, the “shrunken log2 fold change” value was -0.109.

Regarding RRIRERPPRLPRPRPRPQVAPRP, the “shrunken log2 fold change” value was -0.366.

In the case of RRIRQRPPRLPRPRPRPKSNPRP, the “shrunken log2 fold change” value was -0.29.

For the sequence RRIRERPPRLPRPRPRPDNTPRP, the “shrunken log2 fold change” value is -0.489.

Take RRIRERPPRLPRPRPRPLEQPRP: the “shrunken log2 fold change” value was -0.0811.

On to RRIRARPPRLPRPRPRPLMSPRP, for which the “shrunken log2 fold change” value was 0.302.

On to RRIRPRPPRLPRPRPRPYMSPRP, for which the “shrunken log2 fold change” value is -0.636.

As to RRIRERPPRLPRPRPRPVNYPRP, the “shrunken log2 fold change” value is -0.0115.

RRIRVRPPRLPRPRPRPPCNPRP: the “shrunken log2 fold change” value was -0.356.

For RRIRIRPPRLPRPRPRPLLSPRP, the “shrunken log2 fold change” value was -0.483.

With RRIRYRPPRLPRPRPRPHPVPRP, the “shrunken log2 fold change” value is -0.185.

Consider RRIRGRPPRLPRPRPRPHRDPRP, for which the “shrunken log2 fold change” value was found to be 0.0592.

With RRIRSRPPRLPRPRPRPIMDPRP, the “shrunken log2 fold change” value is -0.0619.

In the case of RRIRDRPPRLPRPRPRPFDEPRP, the “shrunken log2 fold change” value was determined as 0.0788.

As to RRIRWRPPRLPRPRPRPASSPRP, the “shrunken log2 fold change” value is -0.0381.

With RRIRRRPPRLPRPRPRPRREPRP, the “shrunken log2 fold change” value is 0.435.

RRIRKRPPRLPRPRPRPHQFPRP: the “shrunken log2 fold change” value is -0.114.

On to RRIRARPPRLPRPRPRPKETPRP, for which the “shrunken log2 fold change” value is 0.229.

As for RRIRKRPPRLPRPRPRPDSTPRP, the “shrunken log2 fold change” value is -0.0499.

For RRIRHRPPRLPRPRPRPYKIPRP, the “shrunken log2 fold change” value is -0.373.

In the case of RRIRVRPPRLPRPRPRPTREPRP, the “shrunken log2 fold change” value was 0.59.

As for RRIRCRPPRLPRPRPRPINCPRP, the “shrunken log2 fold change” value was -0.0582.

Regarding RRIRNRPPRLPRPRPRPPNVPRP, the “shrunken log2 fold change” value is -0.0463.

On to RRIRYRPPRLPRPRPRPHHNPRP, for which the “shrunken log2 fold change” value was -1.28.

In the case of RRIRMRPPRLPRPRPRPRTRPRP, the “shrunken log2 fold change” value is 1.09.

On to RRIRIRPPRLPRPRPRPEAWPRP, for which the “shrunken log2 fold change” value is 0.033.

In the case of RRIRARPPRLPRPRPRPAAWPRP, the “shrunken log2 fold change” value is 0.613.

Take RRIRLRPPRLPRPRPRPLCTPRP: the “shrunken log2 fold change” value worked out at 0.0663.

As to RRIRKRPPRLPRPRPRPELMPRP, the “shrunken log2 fold change” value was 1.24.

In the case of RRIRVRPPRLPRPRPRPICDPRP, the “shrunken log2 fold change” value was -0.0949.

Turning to RRIRPRPPRLPRPRPRPKHHPRP, the “shrunken log2 fold change” value was -0.228.

For RRIRNRPPRLPRPRPRPKTWPRP, the “shrunken log2 fold change” value was 0.0949.

Turning to RRIRDRPPRLPRPRPRPHTRPRP, the “shrunken log2 fold change” value was determined as 0.013.

Take RRIRNRPPRLPRPRPRPRSLPRP: the “shrunken log2 fold change” value was determined as 0.0993.

With RRIRWRPPRLPRPRPRPLPQPRP, the “shrunken log2 fold change” value came out at 0.248.

Turning to RRIRSRPPRLPRPRPRPEVHPRP, the “shrunken log2 fold change” value is 0.0346.

Turning to RRIRNRPPRLPRPRPRPQQEPRP, the “shrunken log2 fold change” value is -0.124.

For RRIRYRPPRLPRPRPRPDWPPRP, the “shrunken log2 fold change” value is -0.0212.

Consider RRIRSRPPRLPRPRPRPPCPPRP, for which the “shrunken log2 fold change” value stood at 0.319.

With RRIRCRPPRLPRPRPRPPKPPRP, the “shrunken log2 fold change” value is 0.692.

Consider RRIRNRPPRLPRPRPRPQFMPRP, for which the “shrunken log2 fold change” value was -0.709.

For RRIRGRPPRLPRPRPRPRQVPRP, the “shrunken log2 fold change” value stood at 0.585.

Consider RRIRSRPPRLPRPRPRPPLVPRP, for which the “shrunken log2 fold change” value is -0.0483.

Turning to RRIRDRPPRLPRPRPRPVWKPRP, the “shrunken log2 fold change” value was -0.0168.

For the sequence RRIRERPPRLPRPRPRPITSPRP, the “shrunken log2 fold change” value was determined as 0.0102.

Regarding RRIRTRPPRLPRPRPRPQLAPRP, the “shrunken log2 fold change” value was determined as 0.129.

Consider RRIRPRPPRLPRPRPRPHNNPRP, for which the “shrunken log2 fold change” value was -0.692.

With RRIRNRPPRLPRPRPRPLVGPRP, the “shrunken log2 fold change” value amounted to 0.0121.

Turning to RRIRHRPPRLPRPRPRPDWNPRP, the “shrunken log2 fold change” value was -0.207.

As for RRIRARPPRLPRPRPRPQQSPRP, the “shrunken log2 fold change” value amounted to 0.54.

Take RRIRDRPPRLPRPRPRPMFKPRP: the “shrunken log2 fold change” value was -0.767.

For RRIRPRPPRLPRPRPRPKVGPRP, the “shrunken log2 fold change” value was determined as 0.172.

Turning to RRIRSRPPRLPRPRPRPVCCPRP, the “shrunken log2 fold change” value was 0.183.

Turning to RRIRLRPPRLPRPRPRPKGPPRP, the “shrunken log2 fold change” value was found to be 0.28.

Consider RRIRLRPPRLPRPRPRPRQWPRP, for which the “shrunken log2 fold change” value was 0.223.

Take RRIRTRPPRLPRPRPRPVCNPRP: the “shrunken log2 fold change” value was -0.345.

Take RRIRWRPPRLPRPRPRPIGFPRP: the “shrunken log2 fold change” value is 0.0993.

For RRIRLRPPRLPRPRPRPCYMPRP, the “shrunken log2 fold change” value was -0.308.

Turning to RRIRGRPPRLPRPRPRPGMKPRP, the “shrunken log2 fold change” value came to 0.484.

Regarding RRIRHRPPRLPRPRPRPMKHPRP, the “shrunken log2 fold change” value is -0.0367.

Turning to RRIRWRPPRLPRPRPRPFVTPRP, the “shrunken log2 fold change” value was -0.215.
